T1: PTPN13_1, Q12923
T1 sequence (Q12923 1088-1188, limits assumed, looked up): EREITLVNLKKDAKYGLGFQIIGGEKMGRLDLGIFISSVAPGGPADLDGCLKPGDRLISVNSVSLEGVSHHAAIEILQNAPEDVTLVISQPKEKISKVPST

T2: MPDZ_12, O75970
T2 sequence (O75970 1857-1958, limits assumed, looked up): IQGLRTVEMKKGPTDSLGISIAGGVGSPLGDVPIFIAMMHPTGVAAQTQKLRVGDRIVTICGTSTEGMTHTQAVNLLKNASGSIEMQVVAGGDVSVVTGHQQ

T3: PDZRN3_1, Q9UPQ7
T3 sequence (Q9UPQ7 244-349, limits assumed, looked up): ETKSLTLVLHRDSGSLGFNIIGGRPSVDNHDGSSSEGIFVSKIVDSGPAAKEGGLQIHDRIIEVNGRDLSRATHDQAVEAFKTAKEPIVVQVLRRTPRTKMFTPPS

T4: APBA2_1, Q99767
T4 sequence (Q99767 563-664, limits assumed, looked up): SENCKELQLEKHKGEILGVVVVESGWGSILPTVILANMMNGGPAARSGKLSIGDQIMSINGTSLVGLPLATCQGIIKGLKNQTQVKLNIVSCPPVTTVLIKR

T5: ARHGEF11, O15085
T5 sequence (O15085 42-136, limits assumed, looked up): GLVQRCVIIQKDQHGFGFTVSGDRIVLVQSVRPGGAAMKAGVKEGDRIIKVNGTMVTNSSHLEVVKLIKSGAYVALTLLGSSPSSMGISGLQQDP

T6: NHERF3_4, Q5T2W1
T6 sequence (Q5T2W1 373-468, limits assumed, looked up): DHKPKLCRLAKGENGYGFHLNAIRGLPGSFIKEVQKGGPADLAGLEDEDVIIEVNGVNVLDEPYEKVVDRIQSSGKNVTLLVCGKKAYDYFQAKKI

T7: DFNB31_3, Q9P202
T7 sequence (Q9P202 811-907, limits assumed, looked up): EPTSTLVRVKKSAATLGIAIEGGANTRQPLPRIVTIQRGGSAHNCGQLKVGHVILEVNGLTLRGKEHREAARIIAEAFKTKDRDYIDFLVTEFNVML

T8: DFNB31_1, Q9P202
T8 sequence (Q9P202 135-233, limits assumed, looked up): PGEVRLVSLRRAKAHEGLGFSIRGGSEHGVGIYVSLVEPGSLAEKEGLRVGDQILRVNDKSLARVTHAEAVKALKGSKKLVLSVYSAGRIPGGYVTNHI

T9: LIN7C, Q9NUP9
T9 sequence (Q9NUP9 88-185, limits assumed, looked up): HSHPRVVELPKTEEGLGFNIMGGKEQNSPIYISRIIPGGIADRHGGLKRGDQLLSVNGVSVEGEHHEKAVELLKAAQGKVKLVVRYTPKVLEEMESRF

T10: DLG3_1, Q92796
T10 sequence (Q92796 125-227, limits assumed, looked up): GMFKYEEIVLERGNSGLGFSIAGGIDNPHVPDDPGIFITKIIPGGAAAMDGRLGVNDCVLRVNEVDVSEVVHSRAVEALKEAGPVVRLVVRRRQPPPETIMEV

T11: TIAM2, Q8IVF5
T11 sequence (Q8IVF5 885-986, limits assumed, looked up): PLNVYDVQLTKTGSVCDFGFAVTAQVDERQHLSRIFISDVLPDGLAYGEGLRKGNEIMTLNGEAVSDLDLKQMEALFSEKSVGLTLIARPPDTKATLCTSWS

T12: LRRC7, Q96NW7
T12 sequence (Q96NW7 1440-1537, limits assumed, looked up): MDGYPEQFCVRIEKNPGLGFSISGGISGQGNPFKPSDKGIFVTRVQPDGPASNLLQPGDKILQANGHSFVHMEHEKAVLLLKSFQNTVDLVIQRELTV


Legend:
Assay in all cases: holdup assay
Parameters in all cases: key: below the threshold = too weak to quantify, mostly under pKd 3.1 to 4
Conditions in all cases: plain residues with an end cap or a label only (N-terminal biotin on a linker: ado-ado)
Inadl_1, Q8NI35 = molecular target: Inadl_1, Q8NI35
PTPN13_1, Q12923 = molecular target: T1, PTPN13_1, Q12923
DLG1_2, Q12959 = molecular target: DLG1_2, Q12959
MAST2, Q6P0Q8 = molecular target: MAST2, Q6P0Q8
MPDZ_12, O75970 = molecular target: T2, MPDZ_12, O75970
PDZRN3_1, Q9UPQ7 = molecular target: T3, PDZRN3_1, Q9UPQ7
APBA2_1, Q99767 = molecular target: T4, APBA2_1, Q99767
ARHGEF11, O15085 = molecular target: T5, ARHGEF11, O15085
NHERF3_4, Q5T2W1 = molecular target: T6, NHERF3_4, Q5T2W1
NHERF4_2, Q86UT5 = molecular target: NHERF4_2, Q86UT5
TJP1_3, Q07157 = molecular target: TJP1_3, Q07157
MAGI2_6, Q86UL8 = molecular target: MAGI2_6, Q86UL8
DFNB31_3, Q9P202 = molecular target: T7, DFNB31_3, Q9P202
NHERF2_2, Q15599 = molecular target: NHERF2_2, Q15599
DLG1_3, Q12959 = molecular target: DLG1_3, Q12959
DFNB31_1, Q9P202 = molecular target: T8, DFNB31_1, Q9P202
LIN7C, Q9NUP9 = molecular target: T9, LIN7C, Q9NUP9
DLG3_1, Q92796 = molecular target: T10, DLG3_1, Q92796
LNX1_3, Q8TBB1 = molecular target: LNX1_3, Q8TBB1
NHERF4_4, Q86UT5 = molecular target: NHERF4_4, Q86UT5
AHNAK1, Q09666 = molecular target: AHNAK1, Q09666
HTRA2, O43464 = molecular target: HTRA2, O43464
Inadl_9, Q8NI35 = molecular target: Inadl_9, Q8NI35
TIAM2, Q8IVF5 = molecular target: T11, TIAM2, Q8IVF5
MAGI1_1, Q96QZ7 = molecular target: MAGI1_1, Q96QZ7
LRRC7, Q96NW7 = molecular target: T12, LRRC7, Q96NW7

Chain of AHNAK1, Q09666 (Q09666 4-100): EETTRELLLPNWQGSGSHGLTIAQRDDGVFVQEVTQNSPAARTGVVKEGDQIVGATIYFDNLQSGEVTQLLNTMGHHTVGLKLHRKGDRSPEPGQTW
Chain of MAGI1_1, Q96QZ7 (Q96QZ7 1-106): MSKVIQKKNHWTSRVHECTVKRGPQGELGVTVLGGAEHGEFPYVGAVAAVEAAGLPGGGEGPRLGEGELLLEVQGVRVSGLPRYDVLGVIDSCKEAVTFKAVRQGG
Chain of Inadl_9, Q8NI35 (Q8NI35 1530-1615): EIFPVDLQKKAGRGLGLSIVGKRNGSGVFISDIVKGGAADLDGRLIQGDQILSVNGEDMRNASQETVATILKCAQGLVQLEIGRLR
Chain of LNX1_3, Q8TBB1 (Q8TBB1 500-596): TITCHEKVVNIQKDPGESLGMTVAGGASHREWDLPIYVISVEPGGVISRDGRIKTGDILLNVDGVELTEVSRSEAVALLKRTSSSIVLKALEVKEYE
Chain of HTRA2, O43464 (O43464 355-458): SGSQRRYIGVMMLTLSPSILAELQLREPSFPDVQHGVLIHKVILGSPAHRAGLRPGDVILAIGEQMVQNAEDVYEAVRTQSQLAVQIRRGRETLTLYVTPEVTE
Chain of Inadl_1, Q8NI35 (Q8NI35 113-229): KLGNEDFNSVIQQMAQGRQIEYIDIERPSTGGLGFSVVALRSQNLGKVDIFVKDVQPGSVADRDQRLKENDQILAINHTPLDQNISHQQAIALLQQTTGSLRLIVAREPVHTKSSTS
Chain of NHERF4_2, Q86UT5 (Q86UT5 220-308): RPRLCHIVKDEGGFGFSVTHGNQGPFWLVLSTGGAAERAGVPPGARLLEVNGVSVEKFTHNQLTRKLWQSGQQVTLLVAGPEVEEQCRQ
Chain of DLG1_3, Q12959 (Q12959 457-571): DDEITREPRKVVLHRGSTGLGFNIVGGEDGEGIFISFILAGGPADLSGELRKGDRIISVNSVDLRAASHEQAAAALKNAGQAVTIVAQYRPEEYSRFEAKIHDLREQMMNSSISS
Chain of DLG1_2, Q12959 (Q12959 314-412): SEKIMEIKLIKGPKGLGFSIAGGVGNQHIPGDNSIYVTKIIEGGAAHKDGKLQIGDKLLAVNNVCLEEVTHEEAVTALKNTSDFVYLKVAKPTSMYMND
Chain of NHERF2_2, Q15599 (Q15599 142-238): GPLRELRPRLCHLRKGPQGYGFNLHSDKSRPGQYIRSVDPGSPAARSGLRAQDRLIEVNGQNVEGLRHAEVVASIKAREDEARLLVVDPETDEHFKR
Chain of NHERF4_4, Q86UT5 (Q86UT5 464-550): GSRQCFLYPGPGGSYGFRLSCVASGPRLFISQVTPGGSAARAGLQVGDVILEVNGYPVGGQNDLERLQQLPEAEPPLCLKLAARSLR
Chain of TJP1_3, Q07157 (Q07157 416-512): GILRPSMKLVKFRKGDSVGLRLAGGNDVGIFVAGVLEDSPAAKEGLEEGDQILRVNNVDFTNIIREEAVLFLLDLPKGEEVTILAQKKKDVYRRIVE
Chain of MAGI2_6, Q86UL8 (Q86UL8 1141-1229): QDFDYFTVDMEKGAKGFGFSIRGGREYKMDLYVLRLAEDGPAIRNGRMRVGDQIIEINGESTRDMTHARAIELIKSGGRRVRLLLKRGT
Chain of MAST2, Q6P0Q8 (Q6P0Q8 1099-1202): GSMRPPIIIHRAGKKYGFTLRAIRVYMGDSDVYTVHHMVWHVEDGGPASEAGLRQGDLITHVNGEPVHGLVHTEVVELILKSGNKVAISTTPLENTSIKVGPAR

Binder | pKd (Inadl_1, Q8NI35) | pKd (PTPN13_1, Q12923) | pKd (DLG1_2, Q12959) | pKd (MAST2, Q6P0Q8) | pKd (MPDZ_12, O75970) | pKd (PDZRN3_1, Q9UPQ7) | pKd (APBA2_1, Q99767) | pKd (ARHGEF11, O15085) | pKd (NHERF3_4, Q5T2W1) | pKd (NHERF4_2, Q86UT5) | pKd (TJP1_3, Q07157) | pKd (MAGI2_6, Q86UL8) | pKd (DFNB31_3, Q9P202) | pKd (NHERF2_2, Q15599) | pKd (DLG1_3, Q12959) | pKd (DFNB31_1, Q9P202) | pKd (LIN7C, Q9NUP9) | pKd (DLG3_1, Q92796) | pKd (LNX1_3, Q8TBB1) | pKd (NHERF4_4, Q86UT5) | other results
PKLMGVETVV [DUSP10, Q9Y6W6] | below the threshold | 3.48 | 5.61 | 5.17 | below the threshold | 3.69 | below the threshold | 4 | below the threshold | below the threshold | below the threshold | 3.99 | below the threshold | below the threshold | 4.52 | 4.09 | 3.81 | 4.63 | below the threshold | below the threshold | pKd (AHNAK1, Q09666): below the threshold; pKd (HTRA2, O43464): below the threshold; pKd (Inadl_9, Q8NI35): 3.55; pKd (TIAM2, Q8IVF5): below the threshold; pKd (MAGI1_1, Q96QZ7): 3.52; pKd (LRRC7, Q96NW7): 3.83
PEEGKKQSQC [GAGE12J, A6NER3] | below the threshold | below the threshold | below the threshold | 4.33 | below the threshold | below the threshold | below the threshold | 3.62 | below the threshold | below the threshold | below the threshold | below the threshold | 4 | 3.48 | below the threshold | below the threshold | below the threshold | below the threshold | below the threshold | below the threshold | pKd (AHNAK1, Q09666): below the threshold; pKd (HTRA2, O43464): below the threshold; pKd (Inadl_9, Q8NI35): below the threshold; pKd (TIAM2, Q8IVF5): 3.87; pKd (MAGI1_1, Q96QZ7): below the threshold; pKd (LRRC7, Q96NW7): below the threshold
QLAEIAESGL [ITK, Q08881] | below the threshold | below the threshold | below the threshold | 5.28 | 3.53 | 3.89 | 3.58 | 4.05 | 3.54 | 3.57 | below the threshold | 3.68 | below the threshold | 4.27 | 3.86 | 3.97 | below the threshold | 3.56 | 3.66 | below the threshold | pKd (AHNAK1, Q09666): below the threshold; pKd (HTRA2, O43464): below the threshold; pKd (Inadl_9, Q8NI35): below the threshold; pKd (TIAM2, Q8IVF5): below the threshold; pKd (MAGI1_1, Q96QZ7): 3.62; pKd (LRRC7, Q96NW7): below the threshold

Continued, in another order:

pKd (Inadl_1, Q8NI35) | pKd (PTPN13_1, Q12923) | pKd (DLG1_2, Q12959) | pKd (MAST2, Q6P0Q8) | pKd (MPDZ_12, O75970) | pKd (PDZRN3_1, Q9UPQ7) | pKd (APBA2_1, Q99767) | pKd (ARHGEF11, O15085) | pKd (NHERF3_4, Q5T2W1) | pKd (NHERF4_2, Q86UT5) | pKd (TJP1_3, Q07157) | pKd (MAGI2_6, Q86UL8) | pKd (DFNB31_3, Q9P202) | pKd (NHERF2_2, Q15599) | pKd (DLG1_3, Q12959) | pKd (DFNB31_1, Q9P202) | pKd (LIN7C, Q9NUP9) | pKd (DLG3_1, Q92796) | pKd (LNX1_3, Q8TBB1) | pKd (NHERF4_4, Q86UT5) | Binder | other results
below the threshold | below the threshold | below the threshold | 4.68 | below the threshold | below the threshold | below the threshold | 3.93 | below the threshold | below the threshold | below the threshold | below the threshold | 3.96 | 3.71 | 3.87 | 4.27 | below the threshold | 3.54 | below the threshold | below the threshold | SSGSTSSSRI [ADGRG1, Q9Y653] | pKd (AHNAK1, Q09666): below the threshold; pKd (HTRA2, O43464): below the threshold; pKd (Inadl_9, Q8NI35): below the threshold; pKd (TIAM2, Q8IVF5): 3.82; pKd (MAGI1_1, Q96QZ7): below the threshold; pKd (LRRC7, Q96NW7): below the threshold
below the threshold | below the threshold | below the threshold | below the threshold | 3.54 | below the threshold | below the threshold | below the threshold | below the threshold | below the threshold | below the threshold | below the threshold | below the threshold | below the threshold | below the threshold | 3.63 | below the threshold | below the threshold | below the threshold | below the threshold | EGGKKRESEA [APPL1, Q9UKG1] | pKd (AHNAK1, Q09666): below the threshold; pKd (HTRA2, O43464): below the threshold; pKd (Inadl_9, Q8NI35): below the threshold; pKd (TIAM2, Q8IVF5): 4.02; pKd (MAGI1_1, Q96QZ7): below the threshold; pKd (LRRC7, Q96NW7): below the threshold

— PMC9482650, “Quantitative fragmentomics allow affinity mapping of interactomes” (Nature Communications, 2022)
